Experimental data published in article PMC10824877, “Assessment of bioactive peptides derived from laminin-111 as prospective breast cancer-targeting agents” (Amino Acids, 2024).
“Also recorded” adds a separate entry of the source. No end group written: not given here. *: point of attachment. 131I = iodine-131 radiolabel on tyrosine, [131I]*

How the values were obtained:
[1] = Radiochemical stability in saline; assay type: physicochemical
Method: (§1) The radiochemical stability of the radiopeptides was evaluated in two distinct environments: in saline (n = 3), at room temperature and under refrigeration (4–8 °C), by a period of 48 h after the radiolabeling, and in serum (n = 5), at 37 °C, for up to 24 h after incubation. At predefined time intervals, aliquots were extracted and subjected to ascending chromatography, as previously detailed.

[2] = Radiochemical stability in serum; assay type: in vitro ADME; conditions: 37 °C, up to 24 h
Method: as §1

## [^131I]I-KAFDITYVRLKF: laminin-111 γ1 chain C16 peptide KAFDITYVRLKF radiolabeled with iodine-131 at the central tyrosine residue (KAFDITY(131I)VRLKF)
[1]; after 24 h, room temperature or under refrigeration
  decrease of radiochemical purity: approximately 50%
[1]; both storage conditions, within the specified time interval
  radiochemical purity remaining: around 50%
[2]
  radiochemical stability in serum: unstable; also recorded: radiochemical instability within the first hour
